± gives the standard deviation of the averaged measurements.
System: Saccharomyces cerevisiae
Assay: protein stability index of tFT-peptide fusion (C-terminal peptide) (PSI (0-1 scale)); higher = more stable (slower turnover)
Details: genetic background: das1 deletion; temperature: 37 C
Procedure: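 MPS profiling in S. cerevisiae of the tFT-X12 degron library: putative degron peptides plus stable controls, 12 aa, fused to the C-terminus of a sfGFP-mCherry timer. Cells are FACS-sorted into 8 mCherry/sfGFP bins and deep-sequenced. PSI runs from 0 (unstable) to 1 (stable). Backgrounds are wild type, das1Δ and doa10Δ at 30 °C, and wild type, das1Δ, cdc34-1 and cdc53-1 at 37 °C; 2-3 technical replicates each.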
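Also: PSI is a weighted mean of sequencing reads over stability bins, variants kept only with over 10 reads, mCherry proximal and sfGFP distal, peptide attached via GGGS linker.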

Sequence	protein stability index
TLWWRQPFWGFG	0.8 ± 0.021
TSRRPFVLVMWL	0.6229 ± 0.0049
TTATLSFAICAV	0.473 ± 0.0063
TYKHIVRVNKCE	0.727 ± 0.0073
TYSVIPSLALLP	0.7298 ± 0.0043
VAGGFWCWGMVG	0.788 ± 0.013
VARWVYALGLLC	0.677 ± 0.025
VCCSILFSAFLV	0.653 ± 0.001
VCDPWVFIRCLV	0.6025 ± 0.0034
VCLVAGVFFCLL	0.638 ± 0.021
VCVAVCFVMCGG	0.499 ± 0.018
VCVWVDILAFCS	0.278 ± 0.0048
VDVWRWRGLRVG	0.7528 ± 0.00093
VFAWSLYLRWAW	0.411 ± 0.011
VFFFNALFCFFC	0.562 ± 0.0091
VFFSLSLILFPF	0.525 ± 0.024
VFFVLAVVGADA	0.551 ± 0.018
VFLFSLLIVFFP	0.385 ± 0.00051
VFLLLSLSVFFE	0.225 ± 0.0081
VFSFGLLFQVCR	0.6144 ± 0.0034
VFSGVTTILVRT	0.576 ± 0.022
VFSLFLVLNYPF	0.495 ± 0.01
VGGLGWCWVCMA	0.75 ± 0.013
VGIFKVCALVLR	0.4622 ± 0.003
VGVSCVVCVCGV	0.514 ± 0.0077
VGVVVAIGLVRM	0.546 ± 0.0048

Sequence	protein stability index
VICSLFRYIMRL	0.6336 ± 0.0037
VIFFEFFLSFGE	0.452 ± 0.026
VIRIRLSCSVDV	0.411 ± 0.0063
VISVFAISTRVD	0.5675 ± 0.0051
VIVQSWEIIRLN	0.7176 ± 0.0053
VKVKMKIIIIIK	0.416 ± 0.032
VLGFRPLVFLCF	0.4637 ± 0.0028
VLRACCDWGFLV	0.77382 ± 0.00011
VLRLLARRHAMV	0.689 ± 0.013
VMLFYVGSGVVS	0.685 ± 0.016
VPGCLGRFLFFL	0.722 ± 0.029
VRFGYGRIVWDI	0.808 ± 0.018
VRGLGFRWVWGW	0.7668 ± 0.0056
VRHPVVVVRRVI	0.70566 ± 0.00012
VRRFNVLLYVRG	0.528 ± 0.0053
VRTFAVSCLCVC	0.23 ± 0.0066
VSFFCLICRVYP	0.4808 ± 0.0037
VSIRVVVWVSWG	0.259 ± 0.011
VSLHVFVFLLAS	0.4219 ± 0.0024
VSLIYKTIKNRV	0.726 ± 0.063
VSLSEVAIIVHG	0.596 ± 0.014
VSWWRGVYVVLF	0.566 ± 0.0089
VTEGMKEVIKQI	0.728 ± 0.013
VVDIFLFFLFVC	0.351 ± 0.021
VVFVFIDLGLCV	0.423 ± 0.0072
VVFVRLGWMRAC	0.59 ± 0.018

Sequence	protein stability index
VVGILVLASWDL	0.426 ± 0.019
VVLWTFLLEVSA	0.0951 ± 0.0053
VVLWVVCWGCWK	0.432 ± 0.024
VVSLAVVGRFLV	0.7 ± 0.031
VVVFRWTCWLLV	0.245 ± 0.0041
VWSCILPMVYVW	0.1639 ± 0.00068
VWWWGAVGWLMV	0.628 ± 0.016
WCVRRVRFVMGC	0.479 ± 0.0081
WFLVFLRVGDGP	0.6 ± 0.0068
WKNIHGVFVFVM	0.5696 ± 0.0012
WLCLGLVVGLFL	0.459 ± 0.0058
WLCWVVWFPGLF	0.541 ± 0.012
WLFFVVLPVKAF	0.28 ± 0.016
WLLSFLRFLVLR	0.308 ± 0.02
WLVCAGWVVLSC	0.2772 ± 0.0018
WLYPVFKISYCV	0.5131 ± 0.0049
WNIVKHREDMLS	0.7359 ± 0.0046
WSLPPLLSPLYF	0.758 ± 0.02
WVCCFVWGCLIR	0.353 ± 0.027
WVLSRAAFVFFF	0.606 ± 0.011
WVVLVCGFVLLG	0.442 ± 0.0073
YAFSTCTILIRF	0.338 ± 0.015
YFTNCYRSILTF	0.51517 ± 0.00037
YGWILQLPCFVI	0.37294 ± 0.00032
YHDKLRAIEKFF	0.74 ± 0.03
YLCFVVSCGVLR	0.529 ± 0.0087

Same assay, conditions: genetic background: doa10 deletion; temperature: 30 C

Sequence	protein stability index
TLWWRQPFWGFG	0.673 ± 0.0095
TSRRPFVLVMWL	0.363 ± 0.011
TTATLSFAICAV	0.27 ± 0.0051
TYKHIVRVNKCE	0.179 ± 0.0066
TYSVIPSLALLP	0.648 ± 0.012
VAGGFWCWGMVG	0.392 ± 0.016
VARWVYALGLLC	0.2 ± 0.0064
VCCSILFSAFLV	0.4 ± 0.024
VCDPWVFIRCLV	0.11 ± 0.0075
VCLVAGVFFCLL	0.422 ± 0.017
VCVAVCFVMCGG	0.276 ± 0.0083
VCVWVDILAFCS	0.147 ± 0.019
VDVWRWRGLRVG	0.3592 ± 0.0023
VFAWSLYLRWAW	0.481 ± 0.02
VFFFNALFCFFC	0.31138 ± 0.00022
VFFSLSLILFPF	0.3557 ± 0.00081
VFFVLAVVGADA	0.268 ± 0.0086
VFLFSLLIVFFP	0.1951 ± 0.0019
VFLLLSLSVFFE	0.109 ± 0.014
VFSFGLLFQVCR	0.4081 ± 0.0038
VFSGVTTILVRT	0.346 ± 0.0089
VFSLFLVLNYPF	0.466 ± 0.021
VGGLGWCWVCMA	0.132 ± 0.01
VGIFKVCALVLR	0.399 ± 0.0062
VGVSCVVCVCGV	0.2604 ± 0.0024
VGVVVAIGLVRM	0.3423 ± 0.00054

Sequence	protein stability index
VICSLFRYIMRL	0.18 ± 0.019
VIFFEFFLSFGE	0.253 ± 0.033
VIRIRLSCSVDV	0.313 ± 0.023
VISVFAISTRVD	0.398 ± 0.01
VIVQSWEIIRLN	0.0878 ± 0.0043
VKVKMKIIIIIK	0.3087 ± 0.0006
VLGFRPLVFLCF	0.392 ± 0.011
VLRACCDWGFLV	0.108 ± 0.0016
VLRLLARRHAMV	0.148 ± 0.013
VMLFYVGSGVVS	0.545 ± 0.023
VPGCLGRFLFFL	0.201 ± 0.032
VRFGYGRIVWDI	0.472 ± 0.015
VRGLGFRWVWGW	0.666 ± 0.011
VRHPVVVVRRVI	0.3516 ± 0.0032
VRRFNVLLYVRG	0.324 ± 0.0045
VRTFAVSCLCVC	0.126 ± 0.0024
VSFFCLICRVYP	0.298 ± 0.008
VSIRVVVWVSWG	0.121 ± 0.0089
VSLHVFVFLLAS	0.189 ± 0.012
VSLIYKTIKNRV	0.396 ± 0.049
VSLSEVAIIVHG	0.391 ± 0.022
VSWWRGVYVVLF	0.342 ± 0.013
VTEGMKEVIKQI	0.3751 ± 0.00062
VVDIFLFFLFVC	0.186 ± 0.0069
VVFVFIDLGLCV	0.188 ± 0.019
VVFVRLGWMRAC	0.0904 ± 0.01

Sequence	protein stability index
VVGILVLASWDL	0.196 ± 0.0056
VVLWTFLLEVSA	0.0508 ± 0.019
VVLWVVCWGCWK	0.179 ± 0.015
VVSLAVVGRFLV	0.118 ± 0.018
VVVFRWTCWLLV	0.0257 ± 0.014
VWSCILPMVYVW	0.135 ± 0.016
VWWWGAVGWLMV	0.392 ± 0.017
WCVRRVRFVMGC	0.2183 ± 0.0013
WFLVFLRVGDGP	0.353 ± 0.039
WKNIHGVFVFVM	0.25 ± 0.0047
WLCLGLVVGLFL	0.339 ± 0.031
WLCWVVWFPGLF	0.1615 ± 0.00068
WLFFVVLPVKAF	0.104 ± 0.023
WLLSFLRFLVLR	0.8 ± 0.014
WLVCAGWVVLSC	0.175 ± 0.0096
WLYPVFKISYCV	0.282 ± 0.0049
WNIVKHREDMLS	0.63 ± 0.033
WSLPPLLSPLYF	0.676 ± 0.024
WVCCFVWGCLIR	0.295 ± 0.0035
WVLSRAAFVFFF	0.322 ± 0.0078
WVVLVCGFVLLG	0.22 ± 0.0029
YAFSTCTILIRF	0.38 ± 0.013
YFTNCYRSILTF	0.3196 ± 0.00079
YGWILQLPCFVI	0.219 ± 0.0057
YHDKLRAIEKFF	0.199 ± 0.019
YLCFVVSCGVLR	0.295 ± 0.018

— the supplement of paper PMC10724198
